Reference: patent US20250205324A1, “ANTIGENIC PEPTIDES FOR PREVENTION AND TREATMENT OF CANCER” (ENTEROME S.A., priority 2022, published 2025)

molecular target: T1, HLA-A*0201 (Homo sapiens, UniProt P04439, D140Y/D185E/D98H/E176V/E277Q/G131W/G231S/I119V/I121R/I166T/I218V/L300P/L318F/N151K/N90K/P208A/P217A/Q86G/Q94H/R138H/R169H/T345S); assay: Affinity of the peptide to T2 cell line (HLA-A*0201 binding, FACS with anti-HLA-A2 antibody); details: T2 cells
T1 construct: human tumoral cell T2 which expresses the HLA-A*0201 molecule; endogenous in cells; host or cells: T2 cells (human, TAP1/2 negative)
Description: T2 cells (5·10^4 cells per well) are incubated with decreasing concentrations of peptides from 100 μM to 0.1 μM (4 points: 100 μM, 10 μM, 1 μM, 0.1 μM) in serum-free medium (TexMacs) supplemented with 100 ng/μl of 2 Microglobulin at 37° C. for 16 hours.
The analysis is achieved by FACS (Macsquant analyzer 10 or a Macsquant analyzer 16-Miltenyi).

Molecule | Concentration of peptide that induces 20% of HLA-A2 expression [µM]
SLLSIQSYV [UBE2C-B2] | 0.22
ILLSIQSLL (listed as Homo sapiens) [UBE2C-H2] | 3.27
AVIGIVAAV [OR51E2-B1] | 0.7
QMNPELLTL [KIF2C-B11] | 0.909
LILDTVHSL [ANKRD30A-B2] | 1.13
VLNPELLML [KIF2C-B13] | 0.189
AQIGIVAVV (listed as Homo sapiens) [OR51E2-H1] | 5.68
KVWSDVTPL (listed as Homo sapiens) [MMP11-H1] | 0.65
KILDTVHSC (listed as Homo sapiens) [ANKRD30A-H2] | 25.32
YLILEYAPL (listed as Homo sapiens) [AURKA-H1] | 12.2
LVIGIILAV (listed as Homo sapiens) [CDH17-H1] | 14.06
TLDQKLFMV [ANKRD30A-B3] | 0.14
ALYDVRTILL (listed as Homo sapiens) [UBEC2-H11] | 14.87
ALYDVRTIL (listed as Homo sapiens) [UBE2C-H1] | 14.98
YLYDVRTAL [UBE2C-B11, b339 prints …] | 0.87
VMNPELLLL [KIF2C-B12] | 0.258

molecular target: T2, HLA-A*0201 molecule expressed on human T2 cells (human); assay: T2 cell HLA-A*0201 binding assay, anti-HLA-A2-PE flow cytometry; details: not given
T2 construct: surface HLA-A2 detected with anti-HLA-A2-PE (clone REA517); also called HLA-A2
Description: T2 cells (5·10⁴ cells per well) are incubated with decreasing concentrations of peptides from 100 μM to 0.1 μM (4 points: 100 μM, 10 μM, 1 μM, 0.1 μM) in serum-free medium (TexMacs) supplemented with 100 ng/μl of 2 Microglobulin at 37° C. for 16 hours. Cells are then washed two times and marked with the anti-HLA-A2 antibody coupled to PE (clone REA517, Miltenyi).
For each peptide concentration, the geometric mean of the labelling associated with the peptide of interest is subtracted from background noise and reported as a percentage of the geometric mean of the HLA-A*0202 labelling obtained for the reference peptide HIV pol 589-597 at a concentration of 100 μM.

Molecule | concentration of peptide that induces 20% of HLA-A2 expression [µM] | in vitro binding affinity (relative affinity, normalized against HIV-pol) | mean relative fluorescence intensity at 0.1 µM peptide | mean relative fluorescence intensity at 1 µM peptide | mean relative fluorescence intensity at 10 µM peptide | mean relative fluorescence intensity at 100 µM peptide
YLILEYATV (also called ENT199_B1) [AURKA-B1] | 1.16 | – | – | – | – | –
LVIGIILAV (also called ENT176-H) [CDH17-H1] | 14.1 | 14.9 ratio to HIV pol reference peptide | 0.5 % of HIV pol reference peptide | 3.7 % of HIV pol reference peptide | 17.6 % of HIV pol reference peptide | –
YLSGANLFV (also called CEACAM-B1; ENT188_B1) [CEACAM5-B1] | 0.5 | 0.5 ratio to HIV pol reference peptide | 7.7 % of HIV pol reference peptide | 30.8 % of HIV pol reference peptide | 69.2 % of HIV pol reference peptide | 76 % of HIV pol reference peptide
SLDQKLFQL [ANKRD30A-H3] | 0.32 | 0.4 ratio to HIV pol reference peptide | 5.9 % of HIV pol reference peptide | 41.9 % of HIV pol reference peptide | 99.1 % of HIV pol reference peptide | 97.1 % of HIV pol reference peptide
KIIGIILAV (also called ENT176_B1; ENT_176-B1) [CDH17-B1] | 0.2 | – | – | – | – | –
YLILEYAPL [AURKA-H1] | 12.2 | 22.8 ratio to HIV pol reference peptide | 0 % of HIV pol reference peptide | 0 % of HIV pol reference peptide | 13.1 % of HIV pol reference peptide | 164 % of HIV pol reference peptide
